Laboratory results published in paper PMC3149649, “Evidence for a Two-Metal-Ion Mechanism in the Cytidyltransferase KdsB, an Enzyme Involved in Lipopolysaccharide Biosynthesis” (PLoS ONE, 2011).

Substrate: Nc1ccn([C@@H]2O[C@H](COP(=O)(O)OP(=O)(O)OP(=O)(O)O)[C@@H](O)[C@H]2O)c(=O)n1
Experiment: discontinuous CMP-Kdo formation assay (Ray et al.), non-linear Michaelis-Menten fit
Type: biochemical, Aquifex aeolicus
Settings: co-substrate Kdo held constant (>5 x Km), 10 mM MgCl2 (typical mixture), 100 mM glycine-NaOH pH 9.0, 50°C

B1: AA-LCKS (LPS-specific CMP-Kdo synthetase, KdsB) (Aquifex aeolicus VF5) (protein)
chain: MRRAVIIPARLGSTRLKEKPLKNLLGKPLIRWVVEGLVKTGERVILATDSERVKEVVEDLCEVFLTPSDLPSGSDRVLYVVRDLDVDLIINYQGDEPFVYEEDIKLIFRELEKGERVVTLARKDKEAYERPEDVKVVLDREGYALYFSRSPIPYFRKNDTFYPLKHVGIYGFRKETLMEFGAMPPSKLEQIEGLEQLRLLENGIKIKVLITENYYHGVDTEEDLKIVEEKLKNL
notes: recombinant from plasmid pT7-kdsB in E. coli BL21-CodonPlus(DE3)-RIL; no tag mentioned; monomer 27 kDa, gel filtration 53 kDa, homodimer
- Km: 160 ± 4 µM
- kcat: 9.5 ± 0.5 s⁻¹
